The values that follow come from patent US12295987B2, “Method of using a GIP/GLP1 co-agonist for diabetes” (Eli Lilly and Company, priority 2018, dated 2025).

For the test, the target named is T1, human gastric inhibitory peptide receptor (hGIPR) (Homo sapiens, UniProt P48546).
T1 construct: expressed in transfected cells; host or cells: HEK293
T1 sequence (P48546 22-466): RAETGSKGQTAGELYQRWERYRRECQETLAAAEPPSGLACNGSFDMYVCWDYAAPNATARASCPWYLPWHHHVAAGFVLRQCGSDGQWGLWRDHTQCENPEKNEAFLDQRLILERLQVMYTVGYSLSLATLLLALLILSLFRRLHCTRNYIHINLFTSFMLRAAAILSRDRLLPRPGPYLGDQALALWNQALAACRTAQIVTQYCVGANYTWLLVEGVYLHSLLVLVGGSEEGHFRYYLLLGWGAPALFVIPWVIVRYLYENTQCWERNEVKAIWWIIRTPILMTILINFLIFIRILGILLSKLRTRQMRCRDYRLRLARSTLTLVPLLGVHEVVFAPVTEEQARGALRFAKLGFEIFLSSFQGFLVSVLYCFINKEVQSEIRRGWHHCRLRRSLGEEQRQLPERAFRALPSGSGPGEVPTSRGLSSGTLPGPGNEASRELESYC
As to the kind of experiment: cAMP pharmacological functional assay in presence of 0.1% casein, hGIPR. The class given is cell-based. Particulars: ratio of hGIPR to hGLP1R cAMP EC50 ratios. On the procedure: Each receptor over-expressing cell line (20 μl) is treated with the test peptide in DMEM (Gibco Cat #31053) supplemented with 0.1% Casein (Sigma Cat #C4765), 250 μM IBMX, 1× GlutaMAX™ (Gibco Cat #35050), and 20 mM HEPES (HyClone Cat #SH30237.01) in a 20 μl assay volume. […] EC50 is the concentration of compound causing half-maximal simulation in a dose response curve. A relative EC50 value is derived by non-linear regression analysis using the percent maximal response vs. the concentration of peptide added, fitted to a four-parameter logistic equation.
Intracellular cAMP levels are determined by extrapolation using a standard curve. Dose response curves of compounds are plotted as the percentage of stimulation normalized to minimum (buffer only) and maximum (maximum concentration of each control ligand) values and analyzed using a four parameter non-linear regression fit with a variable slope (Genedata Screener 13). EC50 is the concentration of compound causing half-maximal simulation in a dose response curve.
EC50 is the concentration of compound causing half-maximal simulation in a dose response curve.

With “Y-Aib-Aad-GTFTSDYSILLDKK((2-[2-(2-Amino-ethoxy)-ethoxy]-acetyl)2-(γGlu)-CO—(CH2)18—CO2H)AQ-Aib-AFIEYLIEGGPSSGAPPPS-NH2 (YXXGTFTSDYSILLDKKAQXAFIEYLIEGGPSSGAPPPS; Aib, Aad, lipidated Lys, C-terminal amide; (2)..(2) Xaa at position 2 is Aib; (3)..(3) Xaa at position 3 is Aad; MOD_RES (17)..(17) Lys at position 17 is chemically modified by conjugation of the epsilon-amino group of the Lys side chain with (2-[2-(2-amino-ethoxy)-ethoxy]-acetyl)2-(gamma-Glu)-CO-(CH2)18- CO2H; (20)..(20) Xaa at position 20 is Aib; MOD_RES (39)..(39) Ser at position 39 is amidated) [Peptide 89]”, the “[hGIPR/hGLP1R] EC50 Ratio” value was determined as 8.97.
With “Y-Aib-EGT-αMeF(2F)-TSD-3Pal-SI-αMeL-LDEK((2-[2-(2-Amino-ethoxy)-ethoxy]-acetyl)2-(γGlu)-CO—(CH2)18—CO2H)AQ-Aib-EFIEYLIEGGPSSGAPPPS-NH2 (YXEGTXTSDXSIXLDEKAQXEFIEYLIEGGPSSGAPPPS; Aib, αMeF(2F), 3Pal, αMeL; lipidated K; C-terminal amide; (2)..(2) Xaa at position 2 is Aib; (6)..(6) Xaa at position 6 is alpha-methyl-Phe(2F); (10)..(10) Xaa at position 10 is 3Pal; (13)..(13) Xaa at position 13 is alpha-methyl-Leu; MOD_RES (17)..(17) Lys at position 17 is chemically modified by conjugation of the epsilon-amino group of the Lys side chain with (2-[2-(2-amino-ethoxy)-ethoxy]-acetyl)2-(gamma-Glu)-CO-(CH2)18- CO2H; (20)..(20) Xaa at posit) [Peptide 157]”, the “[hGIPR/hGLP1R] EC50 Ratio” value stood at 2.52.
Then “Y-Aib-EGT-αMeF(2F)-TSD-4Pal-SI-αMeL-LD-Dab-K((2-[2-(2-Amino-ethoxy)-ethoxy]-acetyl)2-(γGlu)-CO—(CH2)16—CO2H)AQ-Aib-EFI-(D-Glu)-YLIEGGPSSGAPPPS-NH2 (YXEGTXTSDXSIXLDXKAQXEFIXYLIEGGPSSGAPPPS; Aib, 4Pal, Dab, lipidated Lys, D-Glu, C-terminal amide; (2)..(2) Xaa at position 2 is Aib; (6)..(6) Xaa at position 6 is alpha-methyl-Phe(2F); (10)..(10) Xaa at position 10 is 4Pal; (13)..(13) Xaa at position 13 is alpha-methyl-Leu; (16)..(16) Xaa at position 16 is Dab; MOD_RES (17)..(17) Lys at position 17 is chemically modified by conjugation of the epsilon-amino group of the Lys side chain with (2-[2-(2-amino-ethoxy)-ethoxy]-acetyl)2-(gamma-Glu)-CO-) [Peptide 233]”, with 9.25; and “Y-Aib-EGT-αMeF(2F)-TSD-4Pal-SI-αMeL-LD-Orn-K((2-[2-(2-Amino-ethoxy)-ethoxy]-acetyl)2-(γGlu)-CO—(CH2)16—CO2H)AQ-Aib-EFI-(D-Glu)-αMeY-LIEGG-NH2 (YXEGTXTSDXSIXLDXKAQXEFIXXLIEGG; Aib, αMeF(2F), 4Pal, αMeL, Orn, αMeY, D-Glu; C18 diacid lipidation; amide; (2)..(2) Xaa at position 2 is Aib; (6)..(6) Xaa at position 6 is alpha-methyl-Phe(2F); (10)..(10) Xaa at position 10 is 4Pal; (13)..(13) Xaa at position 13 is alpha-methyl-Leu; (16)..(16) Xaa at position 13 is Orn; MOD_RES (17)..(17) Lys at position 17 is chemically modified by conjugation of the epsilon-amino group of the Lys side chain with (2-[2-(2-amino-ethoxy)-ethoxy]-acetyl)2-(gamma-Glu)-CO-) [Peptide 265]”, with 2.99; and “Y-Aib-EGT-αMeF(2F)-TSD-4Pal-SI-αMeL-LD-Orn-K((2-[2-(2-Amino-ethoxy)-ethoxy]-acetyl)2-(γGlu)-CO—(CH2)16—CO2H)AQ-Aib-EFI-(D-Glu)-αMeY-LIEGGPSSG-NH2 (YXEGTXTSDXSIXLDXKAQXEFIXXLIEGGPSSG; Aib, αMeF(2F), 4Pal, αMeL, Orn, αMeY, D-Glu; C18 diacid lipidation; amide; (2)..(2) Xaa at position 2 is Aib; (6)..(6) Xaa at position 6 is alpha-methyl-Phe(2F); (10)..(10) Xaa at position 10 is 4Pal; (13)..(13) Xaa at position 13 is alpha-methyl-Leu; (16)..(16) Xaa at position 16 is Orn; MOD_RES (17)..(17) Lys at position 17 is chemically modified by conjugation of the epsilon-amino group of the Lys side chain with (2-[2-(2-amino-ethoxy)-ethoxy]-acetyl)2-(gamma-Glu)-CO-) [Peptide 264]”, with 2.63.
In the case of “Y-Aib-EGT-αMeF(2F)-TSD-4Pal-SI-αMeL-LD-Orn-K((2-[2-(2-Amino-ethoxy)-ethoxy]-acetyl)2-(γGlu)-CO—(CH2)16—CO2H)AQ-Aib-EFI-(D-Glu)-αMeY-LIEGGPSSGAPPPS-NH2 (YXEGTXTSDXSIXLDXKAQXEFIXXLIEGGPSSGAPPPS; Aib, 4Pal, Orn, αMe residues, lipidated Lys, D-Glu, amide; (2)..(2) Xaa at position 2 is Aib; (6)..(6) Xaa at position 6 is alpha-MeF(2F); (10)..(10) Xaa at position 10 is 4Pal; (13)..(13) Xaa at position 13 is alpha-MeL; (16)..(16) Xaa at position 16 is Orn; MOD_RES (17)..(17) K at position 17 is chemically modified by conjugation of the epsilon-amino group of the K side chain with (2-[2-(2-amino-ethoxy)-ethoxy]-acetyl)2-(gamma-Glu)-CO-(CH2)16- CO2H; (20) [Peptide 4]”, the “[hGIPR/hGLP1R] EC50 Ratio” value amounted to 4.22.
Take “Y-Aib-EGT-αMeF(2F)-TSD-4Pal-SI-αMeL-LD-Orn-K((2-[2-(2-Amino-ethoxy)-ethoxy]-acetyl)2-(γGlu)-CO—(CH2)16—CO2H)AQ-Aib-TFI-(D-Glu)-αMeY-LIEGGPSSGAPPPS-NH2 (YXEGTXTSDXSIXLDXKAQXTFIXXLIEGGPSSGAPPPS; Aib, 4Pal, Orn, αMe residues, lipidated Lys, D-Glu, amide; (2)..(2) Xaa at position 2 is Aib; (6)..(6) Xaa at position 6 is alpha-methyl-Phe(2F); (10)..(10) Xaa at position 10 is 4Pal; (13)..(13) Xaa at position 13 is alpha-methyl-Leu; (16)..(16) Xaa at position 16 is Orn; MOD_RES (17)..(17) Lys at position 17 is chemically modified by conjugation of the epsilon-amino group of the Lys side chain with (2-[2-(2-amino-ethoxy)-ethoxy]-acetyl)2-(gamma-Glu)-CO-) [Peptide 239]”: the “[hGIPR/hGLP1R] EC50 Ratio” value was 5.34.
In the case of “Y-Aib-EGT-αMeF(2F)-TSD-4Pal-SI-αMeL-LD-Orn-K((2-[2-(2-Amino-ethoxy)-ethoxy]-acetyl)2-(εK)-CO—(CH2)18—CO2H)AQ-Aib-AFI-(D-Glu)-αMeY-LIEGGPSSGAPPPS-NH2 (YXEGTXTSDXSIXLDXKAQXAFIXXLIEGGPSSGAPPPS; Aib, 4Pal, Orn, αMe residues, lipidated Lys, D-Glu, amide; (2)..(2) Xaa at position 2 is Aib; (6)..(6) Xaa at position 6 is alpha-methyl-Phe(2F); (10)..(10) Xaa at position 10 is 4Pal; (13)..(13) Xaa at position 13 is alpha-methyl-Leu; (16)..(16) Xaa at position 16 is Orn; MOD_RES (17)..(17) Lys at position 17 is chemically modified by conjugation of the epsilon-amino group of the Lys side chain with (2-[2-(2-amino-ethoxy)-ethoxy]-acetyl)2-(epsilon-Lys)-C) [Peptide 251]”, the “[hGIPR/hGLP1R] EC50 Ratio” value came to 3.74.
